Results reported in patent publication US20260242735A1 (UNIVERSIT T BASEL, published 2026).

Tests used:
Assay in all cases: flow cytometry on HEK293-T, alanine scan
human CD33 V136A = human CD33 V136A (human, UniProt P20138 18-364)
human CD33 P150A = human CD33 P150A (human, UniProt P20138 18-364)
human CD33 I149A = human CD33 I149A (human, UniProt P20138 18-364)
human CD33 T162A = human CD33 T162A (human, UniProt P20138 18-364)
human CD33 K130A = human CD33 K130A (human, UniProt P20138 18-364)
human CD33 K130A, sequence (P20138 18-364 K130A limits assumed): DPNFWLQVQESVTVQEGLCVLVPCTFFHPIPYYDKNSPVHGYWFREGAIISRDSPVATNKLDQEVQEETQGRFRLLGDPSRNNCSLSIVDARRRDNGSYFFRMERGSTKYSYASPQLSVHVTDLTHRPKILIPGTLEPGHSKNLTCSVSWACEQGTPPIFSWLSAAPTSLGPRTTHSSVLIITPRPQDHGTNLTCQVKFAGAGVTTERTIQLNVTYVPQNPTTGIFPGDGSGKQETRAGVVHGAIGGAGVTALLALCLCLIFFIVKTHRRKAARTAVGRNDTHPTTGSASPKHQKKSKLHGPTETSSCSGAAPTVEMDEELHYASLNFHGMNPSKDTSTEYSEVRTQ

human CD33 R109A = human CD33 R109A (human, UniProt P20138 18-364)
human CD33 R109A, sequence (P20138 18-364 R109A limits assumed): as the sequence (P20138 18-364 K130A limits assumed) above, with R92A, A113K counted along it

human CD33 H143A = human CD33 H143A (human, UniProt P20138 18-364)
human CD33 H143A, sequence (P20138 18-364 H143A limits assumed): as the sequence (P20138 18-364 K130A limits assumed) above, with A113K, H126A counted along it

human CD33 D140A = human CD33 D140A (human, UniProt P20138 18-364)
human CD33 D140A, sequence (P20138 18-364 D140A limits assumed): as the sequence (P20138 18-364 K130A limits assumed) above, with A113K, D123A counted along it

human CD33 S104A = human CD33 S104A (human, UniProt P20138 18-364)
human CD33 S104A, sequence (P20138 18-364 S104A limits assumed): as the sequence (P20138 18-364 K130A limits assumed) above, with S87A, A113K counted along it

human CD33 Q133A = human CD33 Q133A (human, UniProt P20138 18-364)
human CD33 Q133A, sequence (P20138 18-364 Q133A limits assumed): as the sequence (P20138 18-364 K130A limits assumed) above, with A113K, Q116A counted along it

human CD33 S158A = human CD33 S158A (human, UniProt P20138 18-364)
human CD33 S158A, sequence (P20138 18-364 S158A limits assumed): as the sequence (P20138 18-364 K130A limits assumed) above, with A113K, S141A counted along it

human CD33 C163A = human CD33 C163A (human, UniProt P20138 18-364)
human CD33 C163A, sequence (P20138 18-364 C163A limits assumed): as the sequence (P20138 18-364 K130A limits assumed) above, with A113K, C146A counted along it

human CD33 W167A = human CD33 W167A (human, UniProt P20138 18-364)
human CD33 W167A, sequence (P20138 18-364 W167A limits assumed): as the sequence (P20138 18-364 K130A limits assumed) above, with A113K, W150A counted along it

human CD33 T142A = human CD33 T142A (human, UniProt P20138 18-364)
human CD33 T142A, sequence (P20138 18-364 T142A limits assumed): as the sequence (P20138 18-364 K130A limits assumed) above, with A113K, T125A counted along it

human CD33 F118A = human CD33 F118A (human, UniProt P20138 18-364)
human CD33 F118A, sequence (P20138 18-364 F118A limits assumed): as the sequence (P20138 18-364 K130A limits assumed) above, with F101A, A113K counted along it

human CD33 T139A = human CD33 T139A (human, UniProt P20138 18-364)
human CD33 T139A, sequence (P20138 18-364 T139A limits assumed): as the sequence (P20138 18-364 K130A limits assumed) above, with A113K, T122A counted along it

human CD33 N113A = human CD33 N113A (human, UniProt P20138 18-364)
human CD33 N113A, sequence (P20138 18-364 N113A limits assumed): as the sequence (P20138 18-364 K130A limits assumed) above, with N96A, A113K counted along it

human CD33 Y116A = human CD33 Y116A (human, UniProt P20138 18-364)
human CD33 Y116A, sequence (P20138 18-364 Y116A limits assumed): as the sequence (P20138 18-364 K130A limits assumed) above, with Y99A, A113K counted along it

human CD33 Y127A = human CD33 Y127A (human, UniProt P20138 18-364)
human CD33 Y127A, sequence (P20138 18-364 Y127A limits assumed): as the sequence (P20138 18-364 K130A limits assumed) above, with Y110A, A113K counted along it

human CD33 V165A = human CD33 V165A (human, UniProt P20138 18-364)
human CD33 V165A, sequence (P20138 18-364 V165A limits assumed): as the sequence (P20138 18-364 K130A limits assumed) above, with A113K, V148A counted along it

human CD33 K126A = human CD33 K126A (human, UniProt P20138 18-364)
human CD33 K126A, sequence (P20138 18-364 K126A limits assumed): as the sequence (P20138 18-364 K130A limits assumed) above, with K109A, A113K counted along it

human CD33 F117A = human CD33 F117A (human, UniProt P20138 18-364)
human CD33 F117A, sequence (P20138 18-364 F117A limits assumed): as the sequence (P20138 18-364 K130A limits assumed) above, with F100A, A113K counted along it

human CD33 N99A = human CD33 N99A (human, UniProt P20138 18-364)
human CD33 N99A, sequence (P20138 18-364 N99A limits assumed): as the sequence (P20138 18-364 K130A limits assumed) above, with N82A, A113K counted along it

human CD33 S124A = human CD33 S124A (human, UniProt P20138 18-364)
human CD33 S124A, sequence (P20138 18-364 S124A limits assumed): as the sequence (P20138 18-364 K130A limits assumed) above, with S107A, A113K counted along it

human CD33 D95A = human CD33 D95A (human, UniProt P20138 18-364)
human CD33 D95A, sequence (P20138 18-364 D95A limits assumed): as the sequence (P20138 18-364 K130A limits assumed) above, with D78A, A113K counted along it

human CD33 S166A = human CD33 S166A (human, UniProt P20138 18-364)
human CD33 S166A, sequence (P20138 18-364 S166A limits assumed): as the sequence (P20138 18-364 K130A limits assumed) above, with A113K, S149A counted along it

human CD33 K159A = human CD33 K159A (human, UniProt P20138 18-364)
human CD33 K159A, sequence (P20138 18-364 K159A limits assumed): as the sequence (P20138 18-364 K130A limits assumed) above, with A113K, K142A counted along it

human CD33 P150A, sequence (P20138 18-364 P150A limits assumed): as the sequence (P20138 18-364 K130A limits assumed) above, with A113K, P133A counted along it
human CD33 T162A, sequence (P20138 18-364 T162A limits assumed): as the sequence (P20138 18-364 K130A limits assumed) above, with A113K, T145A counted along it
human CD33 I149A, sequence (P20138 18-364 I149A limits assumed): as the sequence (P20138 18-364 K130A limits assumed) above, with A113K, I132A counted along it
human CD33 V136A, sequence (P20138 18-364 V136A limits assumed): as the sequence (P20138 18-364 K130A limits assumed) above, with A113K, V119A counted along it

Binder	Mean % WT Binding (human CD33 V136A) [% WT binding]	Mean % WT Binding (human CD33 P150A) [% WT binding]	Mean % WT Binding (human CD33 I149A) [% WT binding]	Mean % WT Binding (human CD33 T162A) [% WT binding]	Mean % WT Binding (human CD33 K130A) [% WT binding]	Mean % WT Binding (human CD33 R109A) [% WT binding]	Mean % WT Binding (human CD33 H143A) [% WT binding]	Mean % WT Binding (human CD33 D140A) [% WT binding]	Mean % WT Binding (human CD33 S104A) [% WT binding]	Mean % WT Binding (human CD33 Q133A) [% WT binding]	Mean % WT Binding (human CD33 S158A) [% WT binding]	Mean % WT Binding (human CD33 C163A) [% WT binding]	Mean % WT Binding (human CD33 W167A) [% WT binding]	Mean % WT Binding (human CD33 T142A) [% WT binding]	Mean % WT Binding (human CD33 F118A) [% WT binding]	Mean % WT Binding (human CD33 T139A) [% WT binding]	Mean % WT Binding (human CD33 N113A) [% WT binding]	Mean % WT Binding (human CD33 Y116A) [% WT binding]	Mean % WT Binding (human CD33 Y127A) [% WT binding]	Mean % WT Binding (human CD33 V165A) [% WT binding]	further results
Refmab #1 (antibody, V domains shown, The alanine scan used IgG or Fab; also called hP67.6) VH: EVQLVQSGAEVKKPGSSVKVSCKASGYTITDSNIHWVRQAPGQSLEWIGYIYPYNGGTDYNQKFKNRATLTVDNPTNTAYMELSSLRSEDTAFYYCVNGNPWLAYWGQGTLVTVSS VL: DIQLTQSPSTLSASVGDRVTITCRASESLDNYGIRFLTWFQQKPGKAPKLLMYAASNQGSGVPSRFSGSGSGTEFTLTISSLQPDDFATYYCQQTKEVPWSFGQGTKVEVK	64.2	78.4	87.5	86.9	106	101	88.8	88.7	89	95.6	87.1	84.6	89.4	85.1	0.1	89.9	96	0.9	92.6	91.6	Mean % WT Binding (human CD33 K126A): 100 % WT binding; Mean % WT Binding (human CD33 F117A): 98.7 % WT binding; Mean % WT Binding (human CD33 N99A): 80.2 % WT binding; Mean % WT Binding (human CD33 S124A): 87.5 % WT binding; Mean % WT Binding (human CD33 D95A): 80.5 % WT binding; Mean % WT Binding (human CD33 S166A): 98.3 % WT binding; Mean % WT Binding (human CD33 K159A): 119 % WT binding
Refmab #2 (antibody, V domains shown, The alanine scan used IgG or Fab) VH: QVQLVQSGAEVKKPGSSVKVSCKASGGTFSDYAISWVRQAPGQGLEWMGRIIPILGVADYAQKFQGRVTITADKSTRTAYMELSSLRSEDTAVYYCARNWADAFDIWGQGTMVTVSS VL: DIQLTQSPSSLSASVGDRVTITCRASQGISSVLAWYQQKPGKAPKLLIYDASSLESGVPSRFSGSGSGTDFTLTISSLQPEDFATYYCQQFDSSITFGQGTKLEIK	99.8	112	116	102	123	104	104	109	109	131	111	97.7	109	104	0.6	123	91	0.7	146	124	Mean % WT Binding (human CD33 K126A): 121 % WT binding; Mean % WT Binding (human CD33 F117A): 111 % WT binding; Mean % WT Binding (human CD33 N99A): 56.8 % WT binding; Mean % WT Binding (human CD33 S124A): 111 % WT binding; Mean % WT Binding (human CD33 D95A): 110 % WT binding; Mean % WT Binding (human CD33 S166A): 114 % WT binding; Mean % WT Binding (human CD33 K159A): 134 % WT binding
Refmab #4 (antibody, V domains shown, The alanine scan used IgG or Fab) VH: QVQLVQSGAEVKKPGESVKVSCKASGYTFTNYGMNWVKQAPGQGLEWMGWINTYTGEPTYADKFQGRVTMTTDTSTSTAYMEIRNLGGDDTAVYYCARWSWSDGYYVYFDYWGQGTSVTVSS VL: DIVMTQSPDSLTVSLGERTTINCKSSQSVLDSSTNKNSLAWYQQKPGQPPKLLLSWASTRESGIPDRFSGSGSGTDFTLTIDSPQPEDSATYYCQQSAHFPITFGQGTRLEIK	47.7	103	99.9	79.9	180	99.5	106	96.1	86.4	96	98	43.3	112	88.8	6	84.3	45.1	5.4	300	117	Mean % WT Binding (human CD33 K126A): 212 % WT binding; Mean % WT Binding (human CD33 F117A): 142 % WT binding; Mean % WT Binding (human CD33 N99A): 43.5 % WT binding; Mean % WT Binding (human CD33 S124A): 58.8 % WT binding; Mean % WT Binding (human CD33 D95A): 90.9 % WT binding; Mean % WT Binding (human CD33 S166A): 110 % WT binding; Mean % WT Binding (human CD33 K159A): 118 % WT binding
Refmab #3 (antibody, V domains shown, The alanine scan used IgG or Fab) VH: QVQLVQSGAEVKKPGSSVKVSCKASGYTFTDYNMHWVRQAPGQGLEWIGYIYPYNGGTGYNQKFKSKATITADESTNTAYMELSSLRSEDTAVYYCARGRPAMDYWGQGTLVTVSS VL: DIQMTQSPSSLSASVGDRVTITCRASESVDNYGISFMNWFQQKPGKAPKLLIYAASNQGSGVPSRFSGSGSGTDFTLTISSLQPDDFATYYCQQSKEVPWTFGQGTKVEIK	106	102	101	109	152	112	97.9	119	102	101	111	65.7	129	133	8.2	143	81.4	5.3	31.9	116	Mean % WT Binding (human CD33 K126A): 566 % WT binding; Mean % WT Binding (human CD33 F117A): 166 % WT binding; Mean % WT Binding (human CD33 N99A): 98.6 % WT binding; Mean % WT Binding (human CD33 S124A): 274 % WT binding; Mean % WT Binding (human CD33 D95A): 103 % WT binding; Mean % WT Binding (human CD33 S166A): 131 % WT binding; Mean % WT Binding (human CD33 K159A): 110 % WT binding
